The text below walks through data of patent publication US20160130324A1 (SHIRE HUMAN GENETIC THERAPIES, published 2016).

In general, IC50 refers to the concentration needed to halve the response being measured. What is called EC50 is the concentration needed to bring the measured effect to its halfway point. A lower EC50 goes with a more potent agent.

The target of assay [1] is T1, rhC1s (human, UniProt P09871 16-688).
T1 construct: Enzyme of the colorimetric peptide cleavage assay; Human is read from the printed label 'rhC1s'
T1 sequence (looked up): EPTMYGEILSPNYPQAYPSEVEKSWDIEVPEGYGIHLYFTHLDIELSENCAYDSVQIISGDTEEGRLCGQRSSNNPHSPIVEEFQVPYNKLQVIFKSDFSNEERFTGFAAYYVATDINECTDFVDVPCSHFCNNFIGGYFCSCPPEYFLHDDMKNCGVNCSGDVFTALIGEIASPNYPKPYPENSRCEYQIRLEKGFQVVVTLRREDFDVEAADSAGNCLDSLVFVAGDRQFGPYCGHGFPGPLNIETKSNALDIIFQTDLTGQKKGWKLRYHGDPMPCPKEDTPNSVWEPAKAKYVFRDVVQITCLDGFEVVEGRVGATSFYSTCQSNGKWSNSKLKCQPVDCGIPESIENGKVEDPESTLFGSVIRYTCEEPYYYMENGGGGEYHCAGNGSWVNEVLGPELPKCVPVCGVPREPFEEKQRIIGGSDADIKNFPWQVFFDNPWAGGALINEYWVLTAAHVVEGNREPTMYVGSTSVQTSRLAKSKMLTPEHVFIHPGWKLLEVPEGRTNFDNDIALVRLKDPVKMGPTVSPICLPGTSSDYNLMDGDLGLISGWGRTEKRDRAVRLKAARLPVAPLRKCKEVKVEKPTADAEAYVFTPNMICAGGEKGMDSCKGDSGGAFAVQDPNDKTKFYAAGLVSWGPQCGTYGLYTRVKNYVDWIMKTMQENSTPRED
The assay is described as follows: inhibition of rhC1s cleavage of a colorimetric peptide substrate, average OD; concentrations from gel estimated sizes; C is the midpoint of the 4-parameter fit [panel B].

For assay [2], the target named is T1, rhC1s. The assay is described as follows: inhibition of rhC1s cleavage of a colorimetric peptide substrate, average OD; concentrations from mass spec sizes; C is the midpoint of the 4-parameter fit [panel A].
A further assay deals with T2, biotin-C1s.
T2 construct: Used in the functional ELISA that measures the C1s/C1-INH complex
T2 sequence (P09871 16-688, species assumed, looked up): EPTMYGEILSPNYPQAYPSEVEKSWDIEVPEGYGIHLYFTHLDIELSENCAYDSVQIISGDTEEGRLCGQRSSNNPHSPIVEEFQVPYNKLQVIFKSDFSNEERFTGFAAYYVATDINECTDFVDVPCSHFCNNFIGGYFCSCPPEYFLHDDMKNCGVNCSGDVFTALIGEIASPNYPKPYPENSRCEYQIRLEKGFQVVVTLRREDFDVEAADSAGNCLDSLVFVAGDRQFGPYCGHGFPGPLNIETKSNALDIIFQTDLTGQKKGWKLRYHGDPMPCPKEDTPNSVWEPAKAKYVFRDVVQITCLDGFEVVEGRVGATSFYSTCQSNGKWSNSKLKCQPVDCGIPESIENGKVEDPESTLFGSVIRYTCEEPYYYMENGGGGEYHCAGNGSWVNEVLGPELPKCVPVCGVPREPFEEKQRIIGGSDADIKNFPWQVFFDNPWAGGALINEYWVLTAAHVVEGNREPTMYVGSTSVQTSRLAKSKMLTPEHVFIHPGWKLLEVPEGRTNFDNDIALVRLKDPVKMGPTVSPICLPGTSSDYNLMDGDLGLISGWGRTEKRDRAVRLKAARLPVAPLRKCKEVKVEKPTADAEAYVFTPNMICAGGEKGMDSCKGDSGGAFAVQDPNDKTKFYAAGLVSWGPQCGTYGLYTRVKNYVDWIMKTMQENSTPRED
Briefly: functional ELISA of the C1s/C1-INH complex: diluted C1-INH with biotin-C1s, captured on a streptavidin plate, anti-C1-INH-HRP, OD450; C is the midpoint of the 4-parameter fit. The method, then: This method was used to test the effector dead Fc constructs made for PK studies FIG. 8. The ELISA protocol was as follows: [0334] 60 μL diluted C1-INH+12 μL biotin-C1s [0335] 30 min incubation at RT [0336] Transfer 50 μL of complexes to streptavidin coated plate [0337] 10 min incubation at RT, wash 5× [0338] Add 50 μL of anti-C1-INH-HRP [0339] 60 min incubation at RT, wash 5× [0340] Add 100 μL of TMB substrate [0341] 15 minute incubation at RT [0342] […] Read at OD450
(ELISA stands for enzyme-linked immunosorbent assay.)

The target of assay [3] is T1, rhC1s. Briefly: inhibition of C1s cleavage of a colorimetric peptide substrate, mean OD value; C is the midpoint of the 4-parameter fit.

B1: R&D rhC1inh (other, human, UniProt P05155 23-500, looked up)
single chain: NPNATSSSSQDPESLQDRGEGKVATTVISKMLFVEPILEVSSLPTTNSTTNSATKITANTTDEPTTQPTTEPTTQPTIQPTQPTTQLPTDSPTQPTTGSFCPGPVTLCSDLESHSTEAVLGDALVDFSLKLYHAFSAMKKVETNMAFSPFSIASLLTQVLLGAGENTKTNLESILSYPKDFTCVHQALKGFTTKGVTSVSQIFHSPDLAIRDTFVNASRTLYSSSPRVLSNNSDANLELINTWVAKNTNNKISRLLDSLPSDTRLVLLNAIYLSAKWKTTFDPKKTRMEPFHFKNSVIKVPMMNSKKYPVAHFIDQTLKAKVGQLQLSHNLSLVILVPQNLKHRLEDMEQALSPSVFKAIMEKLEMSKFQPTLLTLPRIKVTTSQDMLSIMEKLEFFDFSYDLNLCGLTEDPDLQVSAMQHQTVLELTETGVEAAAASAISVARTLLVFEVQQPFLFVLWDQQHKFPVFMGRVYDPRA
notes: commercial R&D Systems preparation; also called hSerpin G1 (R&D Systems)
Regarding B1, the IC50 with rhC1s [1] and in the assay with rhC1s [2] was 1.76 nM in each case.

B2: plasma-derived C1-INH (other)
chain: NPNATSSSSQDPESLQDRGEGKVATTVISKMLFVEPILEVSSLPTTNSTTNSATKITANTTDEPTTQPTTEPTTQPTIQPTQPTTQLPTDSPTQPTTGSFCPGPVTLCSDLESHSTEAVLGDALVDFSLKLYHAFSAMKKVETNMAFSPFSIASLLTQVLLGAGENTKTNLESILSYPKDFTCVHQALKGFTTKGVTSVSQIFHSPDLAIRDTFVNASRTLYSSSPRVLSNNSDANLELINTWVAKNTNNKISRLLDSLPSDTRLVLLNAIYLSAKWKTTFDPKKTRMEPFHFKNSVIKVPMMNSKKYPVAHFIDQTLKAKVGQLQLSHNLSLVILVPQNLKHRLEDMEQALSPSVFKAIMEKLEMSKFQPTLLTLPRIKVTTSQDMLSIMEKLEFFDFSYDLNLCGLTEDPDLQVSAMQHQTVLELTETGVEAAAASAISVARTLLVFEVQQPFLFVLWDQQHKFPVFMGRVYDPRA
notes: Purified from plasma and glycosylated
In the assay with biotin-C1s, B2 had an EC50 of 4.58 nM. The values for the IC50 with rhC1s [1], with rhC1s [2] and in the assay with rhC1s [3] were 2.01 nM, 2.01 nM and 1.83 nM, respectively.

B3: recombinant C1-INH (other, UniProt P05155 23-500, looked up)
chain: NPNATSSSSQDPESLQDRGEGKVATTVISKMLFVEPILEVSSLPTTNSTTNSATKITANTTDEPTTQPTTEPTTQPTIQPTQPTTQLPTDSPTQPTTGSFCPGPVTLCSDLESHSTEAVLGDALVDFSLKLYHAFSAMKKVETNMAFSPFSIASLLTQVLLGAGENTKTNLESILSYPKDFTCVHQALKGFTTKGVTSVSQIFHSPDLAIRDTFVNASRTLYSSSPRVLSNNSDANLELINTWVAKNTNNKISRLLDSLPSDTRLVLLNAIYLSAKWKTTFDPKKTRMEPFHFKNSVIKVPMMNSKKYPVAHFIDQTLKAKVGQLQLSHNLSLVILVPQNLKHRLEDMEQALSPSVFKAIMEKLEMSKFQPTLLTLPRIKVTTSQDMLSIMEKLEFFDFSYDLNLCGLTEDPDLQVSAMQHQTVLELTETGVEAAAASAISVARTLLVFEVQQPFLFVLWDQQHKFPVFMGRVYDPRA
B3 came in with an IC50 in the assay with rhC1s [3] of 1.14 nM.
